Experimental findings from the supplement of paper PMC11246515 are described below.

± gives the standard deviation of the averaged measurements.

The nature of the series: total protein half-life in vivo (active degradation + dilution); higher = more stable protein.
Setting [1] is: E. coli NCM3722 delta-clpP delta-lon delta-hslV, growth: N-lim chemostat, doubling time 6 h.
[2] abbreviates: E. coli NCM3722 delta-clpP, growth: N-lim chemostat, doubling time 6 h.
Where [3] appears, read: E. coli NCM3722 delta-hslV, growth: N-lim chemostat, doubling time 6 h.
Where [4] appears, read: E. coli NCM3722 delta-lon, growth: N-lim chemostat, doubling time 6 h.
Where [5] appears, read: E. coli NCM3722 delta-smpB, growth: N-lim chemostat, doubling time 6 h.
Setting [6] is: wild type E. coli NCM3722, growth: C-lim chemostat, doubling time 3 h.
The mark [7] stands for this setting: wild type E. coli NCM3722, growth: C-lim chemostat, doubling time 6 h.
[8] abbreviates: wild type E. coli NCM3722, growth: C-lim chemostat, doubling time 12 h.
The mark [9] stands for this setting: wild type E. coli NCM3722, growth: N-lim chemostat, doubling time 6 h.
[10] abbreviates: wild type E. coli NCM3722, growth: N-lim chemostat, doubling time 12 h.
Where [11] appears, read: wild type E. coli NCM3722, growth: P-lim chemostat, doubling time 6 h.
[12] abbreviates: wild type E. coli NCM3722, growth: P-lim chemostat, doubling time 12 h.

For the sequence “MEYRSLTLDDFLSRFQLLRPQINRETLNHRQAAVLIPIVRRPQPGLLLTQRSIHLRKHAGQVAFPGGAVDDTDASAIAAALREAEEEVAIPPSAVEVIGVLPPVDSVTGYQVTPVVGIIPPDLPYRASEDEVSAVFEMPLAQALHLGRYHPLDIYRRGDSHRVWLSWYEQYFVWGMTAGIIRELALQIGVKP”, the “total protein half-life in vivo” value under setting [1] is 5.44 ± 0.41 h; the “total protein half-life in vivo” value under setting [2] came out at 2.96 ± 0.13 h; the “total protein half-life in vivo” value under setting [3] turned out to be 3.99 ± 0.25 h; the “total protein half-life in vivo” value under setting [4] turned out to be 4.38 ± 0.51 h; the “total protein half-life in vivo” value under setting [5] came out at 3.01 ± 0.22 h; the “total protein half-life in vivo” value under setting [6] was 2.36 ± 0.8 h. Further, the “total protein half-life in vivo” value is, setting by setting: under setting [7], 5.03 ± 0.89 h; under setting [8], 7.74 ± 0.73 h; under setting [9], 4 ± 0.21 h; under setting [10], 6.98 ± 0.38 h; under setting [11], 4.45 ± 0.2 h; under setting [12], 8.18 ± 0.56 h.

Take “MAKTLYEKLFDAHVVYEAENETPLLYIDRHLVHEVTSPQAFDGLRAHGRPVRQPGKTFATMDHNVSTQTKDINACGEMARIQMQELIKNCKEFGVELYDLNHPYQGIVHVMGPEQGVTLPGMTIVCGDSHTATHGAFGALAFGIGTSEVEHVLATQTLKQGRAKTMKIEVQGKAAPGITAKDIVLAIIGKTGSAGGTGHVVEFCGEAIRDLSMEGRMTLCNMAIEMGAKAGLVAPDETTFNYVKGRLHAPKGKDFDDAVAYWKTLQTDEGATFDTVVTLQAEEISPQVTWGTNPGQVISVNDNIPDPASFADPVERASAEKALAYMGLKPGIPLTEVAIDKVFIGSCTNSRIEDLRAAAEIAKGRKVAPGVQALVVPGSGPVKAQAEAEGLDKIFIEAGFEWRLPGCSMCLAMNNDRLNPGERCASTSNRNFEGRQGRGGRTHLVSPAMAAAAAVTGHFADIRNIK [P0A6A6]”: the “total protein half-life in vivo” value runs as follows: under setting [1], 4.76 ± 0.36 h; under setting [2], 1.53 ± 0.022 h; under setting [3], 2.72 ± 0.34 h; under setting [4], 3.63 ± 0.16 h; under setting [5], 2.28 ± 0.034 h; under setting [6], 1.877 ± 0.017 h. The “total protein half-life in vivo” value reads like this: under setting [7], 3.17 ± 0.04 h; under setting [8], 3.71 ± 0.57 h; under setting [9], 2.9 ± 0.39 h; under setting [10], 3.91 ± 0.068 h; under setting [11], 2.32 ± 0.4 h; under setting [12], 5.41 ± 0.32 h.

Turning to “MHKAILNSDLIATKAGDVTVYNYDGETREYISTSNEYLAVGVGIPACSCLDAPGTHKAGYAICRSADFNSWEYVPDHRGETVYSTKTGESKEIKAPGDYPENTTTIAPLSPYDKWDGEKWVTDTEAQHSAAVDAAEAQRQSLIDAAMASISLIQLKLQAGRKLTQAETTRLNAVLDYIDAVTATDTSTAPDVIWPELPEA”, the “total protein half-life in vivo” value came out at 2.37 h under setting [2]; 1.83 h under setting [4]; 2.04 ± 0.18 h under setting [5]; 3.87 h under setting [8]; 3.06 h under setting [9]; 3.07 ± 0.66 h under setting [10].

On to “MRFYRPLGRISALTFDLDDTLYDNRPVILRTEREALTFVQNYHPALRSFQNEDLQRLRQAVREAEPEIYHDVTRWRFRSIEQAMLDAGLSAEEASAGAHAAMINFAKWRSRIDVPQQTHDTLKQLAKKWPLVAITNGNAQPELFGLGDYFEFVLRAGPHGRSKPFSDMYFLAAEKLNVPIGEILHVGDDLTTDVGGAIRSGMQACWIRPENGDLMQTWDSRLLPHLEISRLASLTSLI [P0ADP0]”, for which the “total protein half-life in vivo” value by setting is: under setting [1], 5.24 ± 0.7 h; under setting [2], 4.56 ± 0.69 h; under setting [3], 3.79 ± 0.05 h; under setting [4], 4.87 ± 0.35 h; under setting [5], 3.76 ± 0.16 h; under setting [7], 5.75 ± 0.33 h. Also, the “total protein half-life in vivo” value under setting [8] turned out to be 10.1 ± 1.4 h; the “total protein half-life in vivo” value under setting [9] is 3.83 ± 0.34 h; the “total protein half-life in vivo” value under setting [10] worked out at 6.7 h; the “total protein half-life in vivo” value under setting [11] amounted to 5.87 ± 0.57 h; the “total protein half-life in vivo” value under setting [12] stood at 11.6 ± 0.078 h.

Consider “MIDTTLPLTDIHRHLDGNIRPQTILELGRQYNISLPAQSLETLIPHVQVIANEPDLVSFLTKLDWGVKVLASLDACRRVAFENIEDAARHGLHYVELRFSPGYMAMAHQLPVAGVVEAVIDGVREGCRTFGVQAKLIGIMSRTFGEAACQQELEAFLAHRDQITALDLAGDELGFPGSLFLSHFNRARDAGWHITVHAGEAAGPESIWQAIRELGAERIGHGVKAIEDRALMDFLAEQQIGIESCLTSNIQTSTVAELAAHPLKTFLEHGIRASINTDDPGVQGVDIIHEYTVAAPAAGLSREQIRQAQINGLEMAFLSAEEKRALREKVAAK”, for which the “total protein half-life in vivo” value by setting is: under setting [1], 5.4 ± 0.46 h; under setting [2], 4.73 ± 0.99 h; under setting [3], 4.41 ± 0.094 h; under setting [4], 5.25 ± 0.55 h; under setting [5], 4.49 ± 0.38 h; under setting [6], 2.88 ± 0.36 h. For the same sequence, the “total protein half-life in vivo” value amounted to 10.6 ± 0.3 h under setting [8]; 4.68 ± 0.59 h under setting [9]; 7.15 ± 0.088 h under setting [10]; 5.63 ± 0.2 h under setting [11]; 11 ± 0.3 h under setting [12].

Regarding “MMKLMFASDIHGSLPATERVLELFAQSGAQWLVILGDVLNHGPRNALPEGYAPAKVAERLNEVAHKVIAVRGNCDSEVDQMLLHFPITAPWQQVLLEKQRLFLTHGHLFGPENLPALNQNDVLVYGHTHLPVAEQRGEIFHFNPGSVSIPKGGNPASYGMLDNDVLSVIALNDQSIIAQVAINP”, the “total protein half-life in vivo” value came to 4.01 ± 0.21 h under setting [2]; 3.75 ± 0.28 h under setting [3]; 4.04 ± 0.35 h under setting [4]; 3.97 ± 0.34 h under setting [5]; 2.7 ± 0.24 h under setting [6]; 5.48 ± 0.14 h under setting [7]. Besides, the “total protein half-life in vivo” value is 9.4066 ± 0.0045 h under setting [8]; 4 ± 0.66 h under setting [9]; 6.84 ± 0.35 h under setting [10]; 5.32 ± 0.64 h under setting [11]; 10.1 ± 0.38 h under setting [12].
